The target in test [1] is native rat TrkA on PC12 cells (rat, UniProt P35739 33-799). The experiment in a line: cell-based or functional assay.
Test [2] has as its target T1, recombinant human TrkA (human, UniProt P04629 33-423, limits assumed).
T1 construct: also called hTrkA
In words: SPR, antibody captured on protein A chip, TrkA as analyte, single concentration, 1:1 model. (In general: SPR reads the build-up and loss of mass on a sensor chip optically.)

native rat TrkA on PC12 cells, sequence (P35739 33-799): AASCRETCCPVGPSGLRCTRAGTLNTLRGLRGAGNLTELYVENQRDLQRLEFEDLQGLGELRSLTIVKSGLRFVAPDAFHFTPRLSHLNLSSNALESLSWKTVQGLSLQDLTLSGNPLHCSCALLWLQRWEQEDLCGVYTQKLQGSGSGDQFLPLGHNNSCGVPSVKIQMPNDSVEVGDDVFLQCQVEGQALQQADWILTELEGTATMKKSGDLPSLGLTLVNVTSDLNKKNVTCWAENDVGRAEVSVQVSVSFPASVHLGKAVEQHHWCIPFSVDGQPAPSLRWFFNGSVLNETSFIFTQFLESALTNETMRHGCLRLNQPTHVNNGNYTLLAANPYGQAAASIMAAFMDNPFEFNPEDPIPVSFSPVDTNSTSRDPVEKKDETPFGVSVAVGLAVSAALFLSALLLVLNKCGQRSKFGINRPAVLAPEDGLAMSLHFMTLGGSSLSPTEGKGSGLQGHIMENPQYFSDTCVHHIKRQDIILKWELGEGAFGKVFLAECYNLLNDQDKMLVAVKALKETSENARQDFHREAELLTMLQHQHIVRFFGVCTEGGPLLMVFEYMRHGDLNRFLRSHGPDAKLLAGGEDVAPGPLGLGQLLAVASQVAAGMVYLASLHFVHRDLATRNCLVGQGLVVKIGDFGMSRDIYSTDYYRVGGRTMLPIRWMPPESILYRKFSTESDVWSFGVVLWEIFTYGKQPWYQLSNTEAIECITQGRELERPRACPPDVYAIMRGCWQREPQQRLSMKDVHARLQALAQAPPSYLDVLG
T1 sequence (P04629 33-423 limits assumed): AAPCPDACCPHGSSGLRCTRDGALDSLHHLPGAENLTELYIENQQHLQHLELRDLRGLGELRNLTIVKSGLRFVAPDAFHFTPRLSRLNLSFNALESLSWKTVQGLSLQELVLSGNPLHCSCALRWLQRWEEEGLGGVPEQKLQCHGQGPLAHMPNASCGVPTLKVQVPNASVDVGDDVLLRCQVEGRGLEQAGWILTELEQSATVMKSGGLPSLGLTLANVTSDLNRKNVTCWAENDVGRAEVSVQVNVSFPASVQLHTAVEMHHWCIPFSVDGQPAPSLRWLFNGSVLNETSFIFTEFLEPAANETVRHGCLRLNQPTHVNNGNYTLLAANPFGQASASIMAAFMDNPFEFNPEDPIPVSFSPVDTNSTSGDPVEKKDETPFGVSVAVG

In test [1], “mouse β-NGF (from UniProt P01139 122-241) (ligand)” came in with an Akt phosphorylation in PC12 cells, EC50 of 0.025 nM; an Erk phosphorylation in PC12 cells, EC50 of 0.025 nM; a TrkA receptor phosphorylation in PC12 cells (AlphaLISA p-TrkA Tyr674/675), EC50 of 0.129 nM; a neurite outgrowth in PC12 cells at 138 hours, EC50 of 0.0078 nM.

B1: anti-TrkA antibody Ab386 (antibody, V domains shown)
VH: QVQLQESGPGLVKPSGTLSLTCAVSGGSISSSNWWTWVRQPPGKGLEWIGEIYHRGNRNYNPSLKSRVTISVDKSKNQFSLKLSSVTAADTAVYYCARAPWFDYWGQGTLV
VL: SSELTQDPAVSVALGQTVRITCQGDSLRSYYASWYQQKPGQAPVLVIYGKNNRPSGIPDRFSGSSSGNTASLTITGAQAEDEADYYCNSQDSSGNHLIFGGGTKLTVLG
With B1, in test [1], the “Akt pathway activation (pEC50)” value worked out at 9 pEC50, the “Erk pathway activation (pEC50)” value is 9.23 pEC50 and the “Neurite outgrowth (pEC50)” value was 10.1 pEC50. Moreover, in test [2], the Kd (as a rule, the constant that tells how readily two partners part at equilibrium) came to 1.15 nM; the koff (commonly the rate constant with which the complex falls apart) is 0.000305 s⁻¹; the kon (as a rule, the second-order rate constant of association) came to 266000 M⁻¹ s⁻¹.

B2: anti-TrkA antibody Ab49 (antibody, V domains shown)
VH: EVQLQESGPGLVKPSGTLSLTCAVSGGSISSSNWWTWVRQPPGKGLEWIGEIYHRGNRNYNPSLKSRVTISVDKSKNQFSLKLSSVTAADTAVYYCARAPWFDYWGQGTLV
VL: SSELTQDPAVSVALGQTVRITCQGDSLRSYYASWYQQKPGQAPVLVIYGKNNRPSGIPDRFSGSSSGNTASLTITGAQAEDEADYYCASQASSGNHLIFGGGTKLT
Regarding B2, in test [1], the “Akt pathway activation (pEC50)” value came out at 9.12 pEC50, the “Erk pathway activation (pEC50)” value stood at 9.29 pEC50 and the “Neurite outgrowth (pEC50)” value was determined as 10.1 pEC50. For the same molecule, in test [2], the Kd was determined as 1.78 nM, the off-rate (koff) amounted to 0.000472 s⁻¹ and the kon amounted to 264000 M⁻¹ s⁻¹.

B3: anti-TrkA antibody Ab523 (antibody, V domains shown)
VH: QVQLQESGPGLVKPSGTLSLTCAVSGGSVSSGNWWTWVRQPPGKGLEWIGEIYHRGNRNYNPSLKSRVTISVDKSKNQFSLKLNSVTAADTAVYFCARAPFFDYWGQGTLV
VL: SSELTQDPAVSVALGQTVRITCQGDSLRSYYASWYQQKPGQAPVLVIYGKNNRPSGIPDRFSGSSSWNTASLTITGAQAEDEADYYCNSQDSSGNHLIFGGGTKLTVLG
Regarding B3, in test [2], the dissociation constant (Kd) is 1.3 nM, the koff stood at 0.000258 s⁻¹ and the kon amounted to 199000 M⁻¹ s⁻¹.

B4: anti-TrkA antibody Ab96 (antibody, V domains shown)
VH: EVQLQESGPGLVKPSGTLSLTCAVSGGSISSSNWWTWVRQPPGKGLEWIGEIYHRGNRNYNPSLKSRVTISVDKSKNQFSLKLSSVTAADTAVYYCARAPWFDYWGQGTLV
VL: SSELTQDPAVSVALGQTVRITCQGGSLRSYYASWYQQKPGQAPVLVIYGKNKRPSGIPDRFSGSSSGNTASLTITGAQAEDEADYYCNSQASSGNHLIFGGGTKLT
In the case of B4, in test [1], the “Akt pathway activation (pEC50)” value is 9.53 pEC50, the “Erk pathway activation (pEC50)” value turned out to be 10.2 pEC50 and the “Neurite outgrowth (pEC50)” value came to 9.81 pEC50. In addition, in test [2], the Kd worked out at 1.23 nM and the dissociation rate constant (koff) amounted to 0.000277 s⁻¹.

B5: anti-TrkA antibody Ab76 (antibody, V domains shown)
VH: EVQLQESGPGLVKPSGTLSLTCAVSGGSISSSNWWTWVRQPPGKGLEWIGEIYHRGNRNYNPSLKSRVTISVDKSKNQFSLKLSSVTAADTAVYYCARAPWFDYWGQGTLV
VL: SSELTQDPAVSVALGQTVRITCQGDALRSYYASWYQQKPGQAPVLVIYGKNKRPSGIPDRFSGSSSGNTASLTITGAQAEDEADYYCASQASSGNHLIFGGGTKLT
For the molecule B5, in test [1], the “Akt pathway activation (pEC50)” value came to 9.57 pEC50, the “Erk pathway activation (pEC50)” value was found to be 9.78 pEC50 and the “Neurite outgrowth (pEC50)” value worked out at 9.95 pEC50. For the same molecule, in test [2], the Kd came out at 0.943 nM and the off-rate constant (koff) was 0.000211 s⁻¹.

B6: anti-TrkA antibody Ab70 (antibody, V domains shown)
VH: EVQLQESGPGLVKPSGTLSLTCAVSGGSISSSNWWTWVRQPPGKGLEWIGEIYHRGNRNYNPSLKSRVTISVDKSKNQFSLKLSSVTAADTAVYYCARAPWFDYWGQGTLV
VL: SSELTQDPAVSVALGQTVRITCQGDALRSYYASWYQQKPGQAPVLVIYGKNNRPSGIPDRFSGSSSGNTASLTITGAQAEDEADYYCASQASSGNHLIFGGGTKLT
Consider B6, for which, in test [1], the “Akt pathway activation (pEC50)” value came out at 9.05 pEC50, the “Erk pathway activation (pEC50)” value amounted to 9.21 pEC50 and the “Neurite outgrowth (pEC50)” value was determined as 10 pEC50. In test [2], the dissociation constant (Kd) turned out to be 1.63 nM, the koff is 0.000432 s⁻¹ and the kon is 265000 M⁻¹ s⁻¹.

B7: anti-TrkA antibody Ab79 (antibody, V domains shown)
VH: EVQLQESGPGLVKPSGTLSLTCAVSGGSISSSNWWTWVRQPPGKGLEWIGEIYHRGNRNYNPSLKSRVTISVDKSKNQFSLKLSSVTAADTAVYYCARAPWFDYWGQGTLV
VL: SSELTQDPAVSVALGQTVRITCQGDALRSYYASWYQQKPGQAPVLVIYGKGNRPSGIPDRFSGSSSGNTASLTITGAQAEDEADYYCNSQASSGNHLIFGGGTKLT
Turning to B7, in test [1], the “Akt pathway activation (pEC50)” value was 8.97 pEC50, the “Erk pathway activation (pEC50)” value came out at 9.21 pEC50 and the “Neurite outgrowth (pEC50)” value was determined as 10.2 pEC50. Besides, in test [2], the equilibrium dissociation constant (Kd) amounted to 1.67 nM, the koff amounted to 0.000421 s⁻¹ and the kon worked out at 252000 M⁻¹ s⁻¹.

B8: anti-TrkA antibody Ab67 (antibody, V domains shown)
VH: EVQLQESGPGLVKPSGTLSLTCAVSGGSISSSNWWTWVRQPPGKGLEWIGEIYHRGNRNYNPSLKSRVTISVDKSKNQFSLKLSSVTAADTAVYYCARAPWFDYWGQGTLV
VL: SSELTQDPAVSVALGQTVRITCQGDALRSYYASWYQQKPGQAPVLVIYGKNNRPSGIPDRFSGSSSGNTASLTITGAQAEDEADYYCNSQASSGNHLIFGGGTKLT
Turning to B8, in test [1], the “Akt pathway activation (pEC50)” value stood at 9.07 pEC50, the “Erk pathway activation (pEC50)” value came to 9.28 pEC50 and the “Neurite outgrowth (pEC50)” value came out at 9.96 pEC50. Besides, in test [2], the Kd turned out to be 1.91 nM, the koff worked out at 0.000477 s⁻¹ and the on-rate (kon) stood at 250000 M⁻¹ s⁻¹.

B9: anti-TrkA antibody Ab101 (antibody, V domains shown)
VH: EVQLQESGPGLVKPSGTLSLTCAVSGGSISSSNWWTWVRQPPGKGLEWIGEIYHRGNRNYNPSLKSRVTISVDKSKNQFSLKLSSVTAADTAVYYCARAPWFDYWGQGTLV
VL: SSELTQDPAVSVALGQTVRITCQGGSLRSYYASWYQQKPGQAPVLVIYGKGNRPSGIPDRFSGSSSGNTASLTITGAQAEDEADYYCNSQDSSGNHLIFGGGTKLT
On to B9, for which, in test [1], the “Akt pathway activation (pEC50)” value turned out to be 9.2 pEC50, the “Erk pathway activation (pEC50)” value worked out at 9.45 pEC50 and the “Neurite outgrowth (pEC50)” value came out at 10 pEC50. Besides, in test [2], the Kd came to 1.29 nM, the dissociation rate constant (koff) is 0.000352 s⁻¹ and the on-rate constant (kon) came out at 273000 M⁻¹ s⁻¹.

B10: anti-TrkA antibody Ab3 (antibody, V domains shown)
VH: QVQLQESGPGLVKPSGTLSLTCAVSGGSVSSGNWWTWVRQPPGKGLEWIGEIYHRGNTNYNPSLKSRVTISVDKSKNQFSLKLNSVTAADTAVYFCARAPFFDYWGQGTLV
VL: SSELTQDPAVSVALGQTVRITCQGDSLRSYYASWYQQKPGQAPVLVIFGKNNRPSGIPDRFSGSSSGNTASLTITGAQAEDEADYYCNSQVSGGNHLIFGGGTKLTVLG
Consider B10, for which, in test [1], the “Akt pathway activation (pEC50)” value was 8.67 pEC50, the “Erk pathway activation (pEC50)” value was 8.86 pEC50 and the “Neurite outgrowth (pEC50)” value stood at 9.79 pEC50. Further, in test [2], the Kd was 2.1 nM, the koff worked out at 0.000614 s⁻¹ and the association rate constant (kon) was 293000 M⁻¹ s⁻¹.

B11: anti-TrkA antibody Ab476 (antibody, V domains shown)
VH: QVQLQESGPGLVKPSGTLSLTCAVSGGSISSSNWWTWVRQPPGKGLEWIGEIYHRGNRNYNPSLKSRVTISVDKSKNQFSLKLSSVTAADTAVYYCARAPFFDRWGQGTLV
VL: SSELTQDPAVSVALGQTVRITCQGDSLRSYYASWYQQKPGQAPVLVIHGKNNRPSGIPDRFSGSSSGNTASLTITGAQAEDEADYYCNSQDSSGNHLIFGGGTKLTVLG
With B11, in test [2], the dissociation constant Kd came out at 1.25 nM, the koff came out at 0.0003 s⁻¹ and the kon worked out at 240000 M⁻¹ s⁻¹.

B12: anti-TrkA antibody Ab82 (as in Tables 4 and 6) (antibody, V domains shown)
VH: QVQLQESGPGLVKPSGTLSLTCAVSGGSISSSNWWTWVRQPPGKGLEWIGEIYHRGNRNYNPSLKSRVTISVDKSKNQFSLKLSSVTAADTAVYYCARAPWFDYWGQGTLV
VL: SSELTQDPAVSVALGQTVRITCQGDALRSYYASWYQQKPGQAPVLVIYGKGNRPSGIPDRFSGSSSGNTASLTITGAQAEDEADYYCASQASSGNHLIFGGGTKLT
For B12, in test [1], the “Akt pathway activation (pEC50)” value worked out at 9.09 pEC50, the “Erk pathway activation (pEC50)” value stood at 9.14 pEC50 and the “Neurite outgrowth (pEC50)” value was 9.99 pEC50. In test [2], the Kd is 1.75 nM, the koff worked out at 0.000443 s⁻¹ and the kon amounted to 253000 M⁻¹ s⁻¹.

B13: anti-TrkA antibody Ab676 (antibody, V domains shown)
VH: QVQLQESGPGLVKPSGTLSLTCAVSGGSVSSGNWWTWVRQPPGKGLEWIGEIYHRGNTNYNPSLKSRVTISVDKSKNQFSLKLNSVTAADTAVYFCARAPFFDYWGQGTLV
VL: SSELTQDPAVSVALGQTVRITCQGDSLRSYYASWYQQKPGQAPVLVIHGKNNRPSGIPDRFSGSSSGNTASLTITGAQAEDEADYYCNSQVYGGNHLIFGGGTKLTVLG
As for B13, in test [2], the Kd was 0.815 nM, the koff was 0.000216 s⁻¹ and the kon was 265000 M⁻¹ s⁻¹.

B14: anti-TrkA antibody Ab449 (antibody, V domains shown)
VH: QVQLQESGPGLVKPSGTLSLTCAVSGGSISSSNWWTWVRQPPGKGLEWIGEIYHRGNRNYNPSLKSRVTISVDKSKNQFSLKLSSVTAADTAVYYCARAPWFDRWGQGTLV
VL: SSELTQDPAVSVALGQTVRITCQGDSLRSYYASWYQQKPGQAPVLVIYGKNNRPSGIPDRFSGSSSGNTASLTITGAQAEDEADYYCNSQDSSGNHLIFGGGTKLTVLG
As for B14, in test [2], the dissociation constant Kd was 0.875 nM, the koff came out at 0.000244 s⁻¹ and the kon was 279000 M⁻¹ s⁻¹.

B15: anti-TrkA antibody Ab119 (antibody, V domains shown)
VH: EVQLQESGPGLVKPSGTLSLTCAVSGGSISSSNWWTWVRQPPGKGLEWIGEIYHRGNRNYNPSLKSRVTISVDKSKNQFSLKLSSVTAADTAVYYCARAPWFDYWGQGTLV
VL: SSELTQDPAVSVALGQTVRITCQGASLRSYYASWYQQKPGQAPVLVIYGKNKRPSGIPDRFSGSSSGNTASLTITGAQAEDEADYYCNSQASSGNHLIFGGGTKLT
Regarding B15, in test [1], the “Akt pathway activation (pEC50)” value amounted to 9.25 pEC50, the “Erk pathway activation (pEC50)” value is 10.2 pEC50 and the “Neurite outgrowth (pEC50)” value was determined as 10.2 pEC50. Moreover, in test [2], the dissociation constant (Kd) came to 1.11 nM and the dissociation rate constant (koff) was found to be 0.000265 s⁻¹.

The record behind these values is patent US20250122291A1 (CEPHALON, published 2025).
